PMC6502868, “Architecture of Saccharomyces cerevisiae SAGA complex” (Cell Discovery, 2019)

T1: Spt7 (S. cerevisiae, UniProt P35177 1-1332)
T1 construct: Spt7, S. cerevisiae, second largest SAGA subunit (SPT module); source: endogenous, in the native SAGA complex purified from fermented S. cerevisiae cells
T1 sequence (looked up): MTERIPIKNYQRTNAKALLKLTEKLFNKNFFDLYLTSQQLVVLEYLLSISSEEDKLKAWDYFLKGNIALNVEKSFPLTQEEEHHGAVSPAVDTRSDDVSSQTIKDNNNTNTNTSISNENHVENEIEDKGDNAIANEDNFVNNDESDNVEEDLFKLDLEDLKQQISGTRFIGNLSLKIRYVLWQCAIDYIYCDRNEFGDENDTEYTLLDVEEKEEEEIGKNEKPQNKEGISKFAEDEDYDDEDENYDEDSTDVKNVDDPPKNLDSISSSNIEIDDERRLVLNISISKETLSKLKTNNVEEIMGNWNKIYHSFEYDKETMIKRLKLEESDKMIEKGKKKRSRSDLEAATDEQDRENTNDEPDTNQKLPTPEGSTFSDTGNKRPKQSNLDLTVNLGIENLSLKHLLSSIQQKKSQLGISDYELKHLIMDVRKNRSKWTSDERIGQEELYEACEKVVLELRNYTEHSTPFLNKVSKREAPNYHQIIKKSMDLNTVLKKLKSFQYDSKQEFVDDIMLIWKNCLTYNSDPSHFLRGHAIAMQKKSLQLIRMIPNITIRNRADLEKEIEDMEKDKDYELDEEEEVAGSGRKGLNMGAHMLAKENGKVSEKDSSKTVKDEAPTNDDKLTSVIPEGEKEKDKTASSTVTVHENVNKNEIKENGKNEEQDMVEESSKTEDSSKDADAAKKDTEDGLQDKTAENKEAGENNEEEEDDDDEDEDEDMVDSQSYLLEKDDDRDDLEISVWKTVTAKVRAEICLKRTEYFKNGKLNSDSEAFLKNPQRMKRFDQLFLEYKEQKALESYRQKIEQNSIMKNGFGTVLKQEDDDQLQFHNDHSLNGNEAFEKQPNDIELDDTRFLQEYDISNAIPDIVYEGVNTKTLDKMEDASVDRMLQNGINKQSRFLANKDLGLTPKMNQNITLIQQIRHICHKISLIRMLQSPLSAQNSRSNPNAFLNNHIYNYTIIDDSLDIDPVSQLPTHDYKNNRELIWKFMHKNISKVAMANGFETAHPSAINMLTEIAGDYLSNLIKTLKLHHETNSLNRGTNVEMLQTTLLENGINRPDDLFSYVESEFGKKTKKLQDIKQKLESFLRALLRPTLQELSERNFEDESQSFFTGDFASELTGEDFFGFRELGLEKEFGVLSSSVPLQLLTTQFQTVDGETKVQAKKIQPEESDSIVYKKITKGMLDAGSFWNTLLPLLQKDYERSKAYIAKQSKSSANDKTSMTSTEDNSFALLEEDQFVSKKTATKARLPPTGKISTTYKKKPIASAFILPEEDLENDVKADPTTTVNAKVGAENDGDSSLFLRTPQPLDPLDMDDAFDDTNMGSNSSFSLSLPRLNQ


Target: T2, Tra1 (S. cerevisiae, UniProt P38811 1-3744)
T2 construct: Tra1, S. cerevisiae, largest SAGA subunit (SPT module), 3744 residues as printed; Endogenous subunit; Purification methods and any tag are in the Supplementary Materials; also called Tra1_(SAGA); lobe A; source: endogenous, in the native SAGA complex purified from fermented S. cerevisiae cells
Assay: cross-linking; chemical cross-linking of proteins coupled with mass spectrometry (CXMS) on the purified native SAGA complex; 139 unique inter- and 184 unique intra-subunit cross-linking pairs
Settings: both partners purified

T2 sequence (P38811 whole entry): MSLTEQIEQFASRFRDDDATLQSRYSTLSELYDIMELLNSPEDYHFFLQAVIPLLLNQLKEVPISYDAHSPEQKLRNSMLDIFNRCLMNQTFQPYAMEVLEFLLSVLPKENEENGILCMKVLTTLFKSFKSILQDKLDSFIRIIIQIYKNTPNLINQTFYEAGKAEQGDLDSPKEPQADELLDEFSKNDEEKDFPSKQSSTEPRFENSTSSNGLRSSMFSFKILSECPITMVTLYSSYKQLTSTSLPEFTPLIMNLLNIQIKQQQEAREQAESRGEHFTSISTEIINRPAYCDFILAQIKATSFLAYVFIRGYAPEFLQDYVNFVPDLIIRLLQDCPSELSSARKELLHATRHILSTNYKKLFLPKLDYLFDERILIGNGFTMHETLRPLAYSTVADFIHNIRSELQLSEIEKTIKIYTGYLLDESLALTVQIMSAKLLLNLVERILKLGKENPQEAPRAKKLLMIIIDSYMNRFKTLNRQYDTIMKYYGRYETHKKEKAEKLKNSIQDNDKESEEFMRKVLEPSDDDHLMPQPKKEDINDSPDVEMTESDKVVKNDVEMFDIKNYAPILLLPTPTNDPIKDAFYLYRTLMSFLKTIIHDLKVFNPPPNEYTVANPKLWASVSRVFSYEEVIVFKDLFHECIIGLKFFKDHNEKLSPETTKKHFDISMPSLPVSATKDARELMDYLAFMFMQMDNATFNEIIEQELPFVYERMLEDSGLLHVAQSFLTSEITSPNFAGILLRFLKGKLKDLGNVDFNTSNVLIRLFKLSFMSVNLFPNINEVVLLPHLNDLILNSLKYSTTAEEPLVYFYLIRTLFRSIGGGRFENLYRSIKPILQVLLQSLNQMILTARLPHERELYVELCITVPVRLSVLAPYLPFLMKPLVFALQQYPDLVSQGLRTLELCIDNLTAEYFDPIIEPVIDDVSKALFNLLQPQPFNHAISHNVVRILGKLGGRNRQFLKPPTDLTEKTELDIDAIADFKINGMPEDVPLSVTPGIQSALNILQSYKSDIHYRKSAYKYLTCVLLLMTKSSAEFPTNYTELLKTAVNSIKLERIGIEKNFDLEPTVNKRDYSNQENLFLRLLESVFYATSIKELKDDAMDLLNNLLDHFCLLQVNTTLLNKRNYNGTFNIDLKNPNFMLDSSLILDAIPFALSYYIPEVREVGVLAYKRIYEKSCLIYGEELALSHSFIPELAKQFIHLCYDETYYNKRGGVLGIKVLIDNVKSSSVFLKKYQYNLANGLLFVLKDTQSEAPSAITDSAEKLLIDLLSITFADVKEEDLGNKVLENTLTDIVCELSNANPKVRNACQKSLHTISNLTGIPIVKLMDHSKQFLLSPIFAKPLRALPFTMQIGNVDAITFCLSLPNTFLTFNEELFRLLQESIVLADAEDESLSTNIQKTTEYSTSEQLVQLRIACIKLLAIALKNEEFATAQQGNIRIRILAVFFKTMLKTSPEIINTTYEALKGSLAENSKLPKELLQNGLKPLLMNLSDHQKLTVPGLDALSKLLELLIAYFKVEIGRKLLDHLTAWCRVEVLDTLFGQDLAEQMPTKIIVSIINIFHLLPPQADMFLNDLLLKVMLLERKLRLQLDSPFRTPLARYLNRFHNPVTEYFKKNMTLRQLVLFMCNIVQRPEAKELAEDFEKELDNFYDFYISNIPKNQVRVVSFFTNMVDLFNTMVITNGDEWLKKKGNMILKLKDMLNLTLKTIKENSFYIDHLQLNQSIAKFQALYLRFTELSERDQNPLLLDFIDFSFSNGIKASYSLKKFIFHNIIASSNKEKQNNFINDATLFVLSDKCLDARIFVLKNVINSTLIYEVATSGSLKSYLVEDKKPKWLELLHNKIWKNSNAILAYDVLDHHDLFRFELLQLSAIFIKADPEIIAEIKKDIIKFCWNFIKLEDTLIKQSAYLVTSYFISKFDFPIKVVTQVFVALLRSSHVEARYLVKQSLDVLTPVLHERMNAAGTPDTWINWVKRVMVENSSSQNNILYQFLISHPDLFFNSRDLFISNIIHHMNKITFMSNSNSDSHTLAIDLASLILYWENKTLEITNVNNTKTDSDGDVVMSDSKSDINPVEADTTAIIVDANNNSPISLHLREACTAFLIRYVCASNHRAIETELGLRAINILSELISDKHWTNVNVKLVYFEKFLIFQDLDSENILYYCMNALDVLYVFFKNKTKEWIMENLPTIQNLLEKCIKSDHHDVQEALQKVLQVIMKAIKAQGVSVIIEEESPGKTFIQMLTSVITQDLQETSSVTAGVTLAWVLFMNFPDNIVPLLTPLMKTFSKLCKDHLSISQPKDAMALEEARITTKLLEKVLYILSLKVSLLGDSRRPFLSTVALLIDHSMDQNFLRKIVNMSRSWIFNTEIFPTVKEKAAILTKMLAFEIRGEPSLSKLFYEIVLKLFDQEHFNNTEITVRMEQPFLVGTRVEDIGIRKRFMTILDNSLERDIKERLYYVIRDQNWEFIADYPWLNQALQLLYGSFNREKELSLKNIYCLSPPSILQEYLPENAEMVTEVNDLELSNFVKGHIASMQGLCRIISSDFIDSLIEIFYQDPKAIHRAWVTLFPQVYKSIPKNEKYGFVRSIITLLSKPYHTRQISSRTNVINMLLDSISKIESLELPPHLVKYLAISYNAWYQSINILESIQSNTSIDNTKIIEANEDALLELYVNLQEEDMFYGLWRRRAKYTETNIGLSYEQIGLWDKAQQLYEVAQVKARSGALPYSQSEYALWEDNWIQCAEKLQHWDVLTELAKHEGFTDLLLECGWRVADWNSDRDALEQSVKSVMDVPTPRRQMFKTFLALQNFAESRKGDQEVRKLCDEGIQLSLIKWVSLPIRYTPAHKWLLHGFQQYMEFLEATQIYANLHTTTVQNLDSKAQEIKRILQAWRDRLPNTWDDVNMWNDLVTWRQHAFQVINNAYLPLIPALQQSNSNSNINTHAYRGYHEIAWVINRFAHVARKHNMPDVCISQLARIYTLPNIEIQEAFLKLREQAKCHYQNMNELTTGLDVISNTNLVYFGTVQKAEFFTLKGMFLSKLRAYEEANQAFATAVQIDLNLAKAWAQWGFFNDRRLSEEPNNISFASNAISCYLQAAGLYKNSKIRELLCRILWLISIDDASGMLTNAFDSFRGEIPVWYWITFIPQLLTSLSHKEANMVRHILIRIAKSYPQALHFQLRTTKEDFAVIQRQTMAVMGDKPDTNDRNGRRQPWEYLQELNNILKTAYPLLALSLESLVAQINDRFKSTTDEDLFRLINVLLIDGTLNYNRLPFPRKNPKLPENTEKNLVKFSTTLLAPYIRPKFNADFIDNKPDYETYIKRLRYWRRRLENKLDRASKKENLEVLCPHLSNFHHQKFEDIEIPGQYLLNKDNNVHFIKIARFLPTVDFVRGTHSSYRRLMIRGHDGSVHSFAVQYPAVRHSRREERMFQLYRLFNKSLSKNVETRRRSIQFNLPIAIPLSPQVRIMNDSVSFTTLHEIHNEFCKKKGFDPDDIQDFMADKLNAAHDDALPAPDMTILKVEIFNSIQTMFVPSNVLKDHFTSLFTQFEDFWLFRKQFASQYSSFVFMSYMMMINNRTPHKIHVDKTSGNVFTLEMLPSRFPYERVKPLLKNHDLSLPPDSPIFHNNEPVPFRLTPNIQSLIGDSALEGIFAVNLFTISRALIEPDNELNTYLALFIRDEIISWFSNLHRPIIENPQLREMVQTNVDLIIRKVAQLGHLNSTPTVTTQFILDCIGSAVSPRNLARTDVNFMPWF

| binding result | Binder |
| --- | --- |
| binds | Spt20 (natural protein, S. cerevisiae, UniProt P50875 1-604, looked up, Spt20, S. cerevisiae, SAGA subunit (SPT module); source: endogenous, in the native SAGA complex purified from fermented S. cerevisiae cells) MSANSPTGNDPHVFGIPVNATPSNMGSPGSPVNVPPPMNPAVANVNHPVMRTNSNSNANEGTRTLTREQIQQLQQRQRLLLQQRLLEQQRKQQALQNYEAQFYQMLMTLNKRPKRLYNFVEDADSILKKYEQYLHSFEFHIYENNYKICAPANSRLQQQQKQPELTSDGLILTKNNETLKEFLEYVARGRIPDAIMEVLRDCNIQFYEGNLILQVYDHTNTVDVTPKENKPNLNSSSSPSNNNSTQDNSKIQQPSEPNSGVANTGANTANKKASFKRPRVYRTLLKPNDLTTYYDMMSYADNARFSDSIYQQFESEILTLTKRNLSLSVPLNPYEHRDMLEETAFSEPHWDSEKKSFIHEHRAESTREGTKGVVGHIEERDEFPQHSSNYEQLMLIMNERTTTITNSTFAVSLTKNAMEIASSSSNGVRGASSSTSNSASNTRNNSLANGNQVALAAAAAAAAVGSTMGNDNNQFSRLKFIEQWRINKEKRKQQALSANINPTPFNARISMTAPLTPQQQLLQRQQQALEQQQNGGAMKNANKRSGNNATSNNNNNNNNLDKPKVKRPRKNAKKSESGTPAPKKKRMTKKKQSASSTPSSTTMS |
| binds | Ada1 (natural protein, S. cerevisiae, UniProt Q12060 1-488, looked up, Ada1, S. cerevisiae, SAGA subunit (SPT module); source: endogenous, in the native SAGA complex purified from fermented S. cerevisiae cells) MSAIQSPAPKPLQPTYPAASPASTNAYMKPGLIGSPAVSNHTEPNNGNNETAEPQGPNQRIDLGAMIEELTSLLGKESWTKYAQIISLFILGKLSRKELSNELELVFSPSAASLEKSNTNHHHSLVRLHNQLLLGIFANSLRENPLGRNGNESSWGFGNGSNNPNNKLKRINKHNSQIEVYKKIVMSLPLNDRNRLKMITKEAGKRGFIFCSVFQARLNNIPKIPIVTNPESLKRVKSNNLKTPLEWSQDIMNGFNVPLASESHSLPDTDSFYLRMVGIAREHGLVGTVDARCVELISLALDQYLKNIIEFTIDTVRYRRKKYSDYYDLNESGLYKSVSEMAADKRDAKIKQLDDDKNEDECADEAKSINNGNNSSKDDIGDISMSSITKAGEAVNEELHENRTISLTNEDIYDSLSIFPNLVEPSGSYYALTNLGLVNDDELVDMKSNIDDLPDFLNEKPTFTPLDERNVGTRHELNWLIKGILTED |
| binds | Taf9 (natural protein, S. cerevisiae, UniProt Q05027 1-157, looked up, Taf9, S. cerevisiae, SAGA subunit (TAF module); source: endogenous, in the native SAGA complex purified from fermented S. cerevisiae cells) MNGGGKNVLNKNSVGSVSEVGPDSTQEETPRDVRLLHLLLASQSIHQYEDQVPLQLMDFAHRYTQGVLKDALVYNDYAGSGNSAGSGLGVEDIRLAIAARTQYQFKPTAPKELMLQLAAERNKKALPQVMGTWGVRLPPEKYCLTAKEWDLEDPKSM |

Target: T1, Spt7
Assay: as above
Settings: both partners purified

| binding result | Binder |
| --- | --- |
| binds | Taf5 (natural protein, S. cerevisiae, UniProt P38129 1-798, looked up, Taf5, S. cerevisiae, SAGA subunit (TAF module); source: endogenous, in the native SAGA complex purified from fermented S. cerevisiae cells) MSQKQSTNQNQNGTHQPQPVKNQRTNNAAGANSGQQPQQQSQGQSQQQGRSNGPFSASDLNRIVLEYLNKKGYHRTEAMLRAESGRTLTPQNKQSPANTKTGKFPEQSSIPPNPGKTAKPISNPTNLSSKRDAEGGIVSSGRLEGLNAPENYIRAYSMLKNWVDSSLEIYKPELSYIMYPIFIYLFLNLVAKNPVYARRFFDRFSPDFKDFHGSEINRLFSVNSIDHIKENEVASAFQSHKYRITMSKTTLNLLLYFLNENESIGGSLIISVINQHLDPNIVESVTAREKLADGIKVLSDSENGNGKQNLEMNSVPVKLGPFPKDEEFVKEIETELKIKDDQEKQLNQQTAGDNYSGANNRTLLQEYKAMNNEKFKDNTGDDDKDKIKDKIAKDEEKKESELKVDGEKKDSNLSSPARDILPLPPKTALDLKLEIQKVKESRDAIKLDNLQLALPSVCMYTFQNTNKDMSCLDFSDDCRIAAAGFQDSYIKIWSLDGSSLNNPNIALNNNDKDEDPTCKTLVGHSGTVYSTSFSPDNKYLLSGSEDKTVRLWSMDTHTALVSYKGHNHPVWDVSFSPLGHYFATASHDQTARLWSCDHIYPLRIFAGHLNDVDCVSFHPNGCYVFTGSSDKTCRMWDVSTGDSVRLFLGHTAPVISIAVCPDGRWLSTGSEDGIINVWDIGTGKRLKQMRGHGKNAIYSLSYSKEGNVLISGGADHTVRVWDLKKATTEPSAEPDEPFIGYLGDVTASINQDIKEYGRRRTVIPTSDLVASFYTKKTPVFKVKFSRSNLALAGGAFRP |
| binds | Taf6 (natural protein, S. cerevisiae, UniProt P53040 1-516, looked up, Taf6, S. cerevisiae, SAGA subunit (TAF module), ~58 kDa as printed; source: endogenous, in the native SAGA complex purified from fermented S. cerevisiae cells) MSTQQQSYTIWSPQDTVKDVAESLGLENINDDVLKALAMDVEYRILEIIEQAVKFKRHSKRDVLTTDDVSKALRVLNVEPLYGYYDGSEVNKAVSFSKVNTSGGQSVYYLDEEEVDFDRLINEPLPQVPRLPTFTTHWLAVEGVQPAIIQNPNLNDIRVSQPPFIRGAIVTALNDNSLQTPVTSTTASASVTDTGASQHLSNVKPGQNTEVKPLVKHVLSKELQIYFNKVISTLTAKSQADEAAQHMKQAALTSLRTDSGLHQLVPYFIQFIAEQITQNLSDLQLLTTILEMIYSLLSNTSIFLDPYIHSLMPSILTLLLAKKLGGSPKDDSPQEIHEFLERTNALRDFAASLLDYVLKKFPQAYKSLKPRVTRTLLKTFLDINRVFGTYYGCLKGVSVLEGESIRFFLGNLNNWARLVFNESGITLDNIEEHLNDDSNPTRTKFTKEETQILVDTVISALLVLKKDLPDLYEGKGEKVTDEDKEKLLERCGVTIGFHILKRDDAKELISAIFFGE |
| binds | Ada3 (natural protein, S. cerevisiae, UniProt P32494 1-702, looked up, Ada3, S. cerevisiae, SAGA subunit (HAT module); source: endogenous, in the native SAGA complex purified from fermented S. cerevisiae cells) MPRHGRRGKLPKGEKLPKKEGGDNTPSKLLSSMLKTLDLTFERDIGMLNGKSVRSIPNKKTLLELQSQLDSLNEILGTIARGDQETIEALRKIRDSKNEKQANDEKQETSNADGQHESSTATEETNIIDKGVQSPPKPPPSNEISGTIENDVESIKQAADNMAKEEINEDKDLQVHRDQPREKRPFDSETENRATENENTQRPDNKKQKIDVDKMENDPTVKNPKSEFVVSQTLPRAAAALGLFNEEGLESTGEDFLKKKYNVASYPTNDLKDLLPGELPDMDFSHPKPTNQIQFNTFLAFVENFFKDLSDDNLKFLKMKYIIPDSLQFDKTYDPEVNPFIIPKLGPLYTDVWFKDENDKNSAYKKPSPYSNDASTILPKKSANELDDNALESGSISCGPLLSRLLSAVLKDDNDKSELQSSKIIRDGGLPRTGGEDDIQSFRNNNNDTVDMTLSQENGPSVQTPDNDIDEEASFQAKLAENKGSNGGTTSTLPQQIGWITNGINLDYPTFEERLKRELKYVGIYMNLPKDENNPNSDDPDWVTGREDDEISAELRELQGTLKQVTKKNQKRKAQLIPLVERQLAWQEYSSILEDLDKQIDQAYVKRIRVPKKRKKHHTAASNNVNTGTTSQIAQQKAANSSLKSLLDKRQRWINKIGPLFDKPEIMKRIPNESVFKDMDQEEDEDEADVFAQNTNKDVELN |
| binds | Ada2 (natural protein, S. cerevisiae, UniProt Q02336 1-434, looked up, Ada2, S. cerevisiae, SAGA subunit (HAT module); source: endogenous, in the native SAGA complex purified from fermented S. cerevisiae cells) MSNKFHCDVCSADCTNRVRVSCAICPEYDLCVPCFSQGSYTGKHRPYHDYRIIETNSYPILCPDWGADEELQLIKGAQTLGLGNWQDIADHIGSRGKEEVKEHYLKYYLESKYYPIPDITQNIHVPQDEFLEQRRHRIESFRERPLEPPRKPMASVPSCHEVQGFMPGRLEFETEFENEAEGPVKDMVFEPDDQPLDIELKFAILDIYNSRLTTRAEKKRLLFENHLMDYRKLQAIDKKRSKEAKELYNRIKPFARVMTAQDFEEFSKDILEELHCRARIQQLQEWRSNGLTTLEAGLKYERDKQARISSFEKFGASTAASLSEGNSRYRSNSAHRSNAEYSQNYSENGGRKKNMTISDIQHAPDYALLSNDEQQLCIQLKILPKPYLVLKEVMFRELLKTGGNLSKSACRELLNIDPIKANRIYDFFQSQNWM |
| binds | Spt8 (natural protein, S. cerevisiae, UniProt P38915 1-602, looked up, Spt8, S. cerevisiae, SAGA subunit (SPT module), ~66.2 kDa as printed; source: endogenous, in the native SAGA complex purified from fermented S. cerevisiae cells) MDEVDDILINNQVVDDEEDDEEMLSGLENDSKQDLEGNDDGGEDEEDDDDDDEDDDDDEDEREDDDEQEDDDGEDDAARMDKTATPTNEHQHDEQKAAAAGAGGAGDSGDAVTKIGSEDVKLSDVDGGVGSREASSSTHEASANGEVYEYYKHMLNAAQIADSYNIYPTAAIPIQTHVNALAVSRGLKYLFLGGSDGYIRKYDLLNTLEGKLSLTILQKHSLAESIQNAGILQSYWENEIPQKKSEMKLSANKTDYEPKVSPVHSLEVQSECLFILSGLQNGGITMQGVRYMEGSIAHYFKGRNGHTQIVNILRLNGQEDRFLSGSWDKRLLEWDLQTGDIVNEFKKSRSELSSLEMRPLYSSVDVSGNVNSGKENENADDDMDSLFGDEDEDEKQDAGNEPVETGDGSNGEENKEQISEESLNIVYDESVFMTSGLNGSVHIWDRRMTQSPALSLERGAGVPPWCLSACWGVDGDHVYAGRRNACVEQFDLKMPSKPIHNLKLPSISGPVSCVKAMPNNKHLLCASRDNIRLYNVEIAVDASNSTTKSSKVPFLIVPGHHGGIISNLYLDPTSRFIISTSGNRGWQGNSTDTTLIYDIDLE |
